Measurements from article PMC9303331, “Novel agonist and antagonist radioligands for the GLP‐2 receptor. Useful tools for studies of basic GLP‐2 receptor pharmacology” (British Journal of Pharmacology, 2022).
Where two headings read alike, the source gives them in different places. Values belong to the molecule of their own block, whether it stands above or below them.

Assays:
mGLP‐1 receptor [1] = target: T1, mGLP‐1 receptor (mouse, UniProt O35659 22-463)
T1 construct: mouse glucagon-like peptide-1 receptor, pcDNA3.1(+) plasmid from ThermoFisher; also called mouse GLP‐1 receptor; source: COS-7, transiently transfected (pcDNA3.1(+)), on whole cells
T1 sequence (looked up): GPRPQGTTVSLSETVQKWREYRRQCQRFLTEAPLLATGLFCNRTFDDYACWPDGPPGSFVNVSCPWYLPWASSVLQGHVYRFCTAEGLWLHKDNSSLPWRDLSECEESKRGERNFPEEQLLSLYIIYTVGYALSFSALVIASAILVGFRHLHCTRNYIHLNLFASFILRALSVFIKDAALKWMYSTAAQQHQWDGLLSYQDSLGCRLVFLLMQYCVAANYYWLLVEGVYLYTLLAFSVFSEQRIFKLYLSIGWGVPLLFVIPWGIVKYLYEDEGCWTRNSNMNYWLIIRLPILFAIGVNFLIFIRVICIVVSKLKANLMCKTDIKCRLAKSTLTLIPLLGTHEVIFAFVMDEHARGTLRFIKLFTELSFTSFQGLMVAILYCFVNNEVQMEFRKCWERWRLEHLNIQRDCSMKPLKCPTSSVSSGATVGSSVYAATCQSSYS

mGLP‐1 receptor [2] = target: T1, mGLP‐1 receptor; remark: listed apart in the source
rGLP‐2 receptor [3] = target: T2, rGLP‐2 receptor (rat, UniProt Q9Z0W0 1-550); conditions: one partner purified
T2 construct: rat glucagon-like peptide-2 receptor, pcDNA3.1(+) plasmid from ThermoFisher; also called rat GLP‐2 receptor; source: COS-7, transiently transfected (pcDNA3.1(+)), on whole cells
T2 sequence (looked up): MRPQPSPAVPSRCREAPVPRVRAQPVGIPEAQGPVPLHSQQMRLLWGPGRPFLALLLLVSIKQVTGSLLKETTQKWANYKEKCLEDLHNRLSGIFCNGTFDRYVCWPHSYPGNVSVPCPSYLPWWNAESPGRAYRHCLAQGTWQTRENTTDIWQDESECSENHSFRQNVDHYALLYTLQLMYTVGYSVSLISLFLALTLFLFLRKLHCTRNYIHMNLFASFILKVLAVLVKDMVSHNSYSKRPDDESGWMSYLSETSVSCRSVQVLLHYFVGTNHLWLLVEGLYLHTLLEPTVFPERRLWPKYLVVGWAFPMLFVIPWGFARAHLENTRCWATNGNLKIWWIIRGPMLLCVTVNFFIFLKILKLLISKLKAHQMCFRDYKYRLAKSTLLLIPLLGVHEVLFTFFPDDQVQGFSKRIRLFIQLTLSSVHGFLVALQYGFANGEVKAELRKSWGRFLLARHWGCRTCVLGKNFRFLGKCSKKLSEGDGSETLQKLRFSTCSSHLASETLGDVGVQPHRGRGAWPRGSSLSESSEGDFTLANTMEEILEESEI

mGLP‐1 receptor [4] = target: T1, mGLP‐1 receptor; conditions: one partner purified
mGLP‐2 receptor [5] = target: T3, mGLP‐2 receptor (mouse, UniProt Q5IXF8 1-512); conditions: one partner purified
T3 construct: mouse glucagon-like peptide-2 receptor, pcDNA3.1(+) plasmid from ThermoFisher; also called mouse GLP‐2 receptor; source: COS-7, transiently transfected (pcDNA3.1(+)), on whole cells
T3 sequence (looked up): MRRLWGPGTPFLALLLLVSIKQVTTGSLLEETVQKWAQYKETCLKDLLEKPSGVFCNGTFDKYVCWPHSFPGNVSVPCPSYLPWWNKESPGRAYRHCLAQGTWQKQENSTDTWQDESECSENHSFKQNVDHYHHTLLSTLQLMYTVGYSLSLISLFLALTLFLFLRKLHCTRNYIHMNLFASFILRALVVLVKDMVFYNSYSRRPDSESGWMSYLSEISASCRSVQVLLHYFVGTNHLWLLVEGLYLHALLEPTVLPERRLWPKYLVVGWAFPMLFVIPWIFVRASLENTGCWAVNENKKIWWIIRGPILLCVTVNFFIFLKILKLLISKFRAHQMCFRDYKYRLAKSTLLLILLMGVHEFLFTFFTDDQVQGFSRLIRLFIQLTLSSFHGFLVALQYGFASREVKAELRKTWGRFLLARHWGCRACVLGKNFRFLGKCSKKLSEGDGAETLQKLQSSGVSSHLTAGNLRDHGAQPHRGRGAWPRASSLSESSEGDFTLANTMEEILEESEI

rGLP‐2 receptor [6] = target: T2, rGLP‐2 receptor; conditions: one partner purified; remark: listed apart in the source
mGLP‐1 receptor [7] = target: T1, mGLP‐1 receptor; conditions: one partner purified; remark: listed apart in the source
mGLP‐2 receptor [8] = target: T3, mGLP‐2 receptor; conditions: one partner purified; remark: listed apart in the source

% max (specific binding of the radioligand, normalised to its binding to the mGLP-2 receptor) (mGLP‐1 receptor [1]): 93.3%
Molecule: [^125I]‐hGLP‐2(3–33,M10Y) (peptide)

% max (specific binding of the radioligand, normalised to its binding to the mGLP-2 receptor) (mGLP‐1 receptor [2]): 84.5%
Molecule: [^125I]‐hGLP‐2(1–33,M10Y) (peptide)

Ki (rGLP‐2 receptor [3]): 5.4 nM
pIC50 (rGLP‐2 receptor [3]): 8.3
Ki (mGLP‐1 receptor [4]): 208 nM
pIC50 (mGLP‐1 receptor [4]): 6.7
Ki (mGLP‐2 receptor [5]): 6.6 nM
pIC50 (mGLP‐2 receptor [5]): 8.2
Ki (rGLP‐2 receptor [6]): 6.5 nM
pIC50 (rGLP‐2 receptor [6]): 8.2
Ki (mGLP‐1 receptor [7]): 183 nM
pIC50 (mGLP‐1 receptor [7]): 6.7
Ki (mGLP‐2 receptor [8]): 18 nM
pIC50 (mGLP‐2 receptor [8]): 7.7
B1: hGLP‐2(1–33) (peptide)
chain: HADGSFSDEMNTILDNLAARDFINWLIQTKITD
